Blank lines part the entries; values can stand above or below the substance they belong to.
What was measured:
[1] = biological target: tumor necrosis factor alpha (TNF-α), R&D Systems 210-TA-005 (UniProt P01375); assay: c-PLA 10X probes, human plasma; TNF-α 1.00E-10 M
[2] = biological target: tumor necrosis factor alpha (TNF-α), R&D Systems 210-TA-005 (UniProt P01375); assay: c-PLA 1X probes, buffer; TNF-α 5.00E-07 M
[3] = biological target: tumor necrosis factor alpha (TNF-α), R&D Systems 210-TA-005 (UniProt P01375); assay: c-PLA 1X probes, buffer; TNF-α 1.00E-10 M
[4] = biological target: tumor necrosis factor alpha (TNF-α), R&D Systems 210-TA-005 (UniProt P01375); assay: t-PLA 10X probes, human plasma; TNF-α 1.00E-10 M
[5] = biological target: tumor necrosis factor alpha (TNF-α), R&D Systems 210-TA-005 (UniProt P01375); assay: t-PLA 1X probes, human plasma; TNF-α 1.00E-10 M
[6] = biological target: tumor necrosis factor alpha (TNF-α), R&D Systems 210-TA-005 (UniProt P01375); assay: t-PLA 1X probes, human plasma; TNF-α 1.00E-12 M
[7] = biological target: tumor necrosis factor alpha (TNF-α), R&D Systems 210-TA-005 (UniProt P01375); assay: t-PLA 1X probes, human plasma; TNF-α 1.00E-13 M
[8] = biological target: tumor necrosis factor alpha (TNF-α), R&D Systems 210-TA-005 (UniProt P01375); assay: c-PLA 1X probes, human plasma; TNF-α 5.00E-07 M
[9] = biological target: tumor necrosis factor alpha (TNF-α), R&D Systems 210-TA-005 (UniProt P01375); assay: c-PLA 10X probes, human plasma; TNF-α 1.00E-09 M
[10] = biological target: tumor necrosis factor alpha (TNF-α), R&D Systems 210-TA-005 (UniProt P01375); assay: t-PLA 1X probes, human plasma; TNF-α 1.00E-08 M
[11] = biological target: tumor necrosis factor alpha (TNF-α), R&D Systems 210-TA-005 (UniProt P01375); assay: t-PLA 1X probes, human plasma; TNF-α 5.00E-07 M
[12] = biological target: tumor necrosis factor alpha (TNF-α), R&D Systems 210-TA-005 (UniProt P01375); assay: c-PLA 1X probes, human plasma; TNF-α 1.00E-10 M
[13] = biological target: vascular endothelial growth factor (VEGF), R&D Systems 293-VE-010 (human) (UniProt P15692); assay: t-PLA with preamplification; VEGF 1.00E-12 M
Chain of UniProt P15692 (P15692 other isoform, or with tags, fused parts or gaps limits assumed): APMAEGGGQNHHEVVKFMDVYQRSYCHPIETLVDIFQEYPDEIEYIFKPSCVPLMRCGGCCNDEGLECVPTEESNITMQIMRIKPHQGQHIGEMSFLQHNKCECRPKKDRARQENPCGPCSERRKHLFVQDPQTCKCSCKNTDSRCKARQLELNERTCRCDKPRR

[14] = biological target: vascular endothelial growth factor (VEGF), R&D Systems 293-VE-010 (human) (UniProt P15692); assay: t-PLA with preamplification; VEGF 1.00E-14 M
[15] = biological target: vascular endothelial growth factor (VEGF), R&D Systems 293-VE-010 (human) (UniProt P15692); assay: c-PLA, chicken plasma; VEGF 1.00E-09 M
[16] = biological target: vascular endothelial growth factor (VEGF), R&D Systems 293-VE-010 (human) (UniProt P15692); assay: c-PLA with preamplification; VEGF 1.00E-10 M
[17] = biological target: vascular endothelial growth factor (VEGF), R&D Systems 293-VE-010 (human) (UniProt P15692); assay: c-PLA, human plasma; VEGF 1.00E-12 M
[18] = biological target: vascular endothelial growth factor (VEGF), R&D Systems 293-VE-010 (human) (UniProt P15692); assay: t-PLA with preamplification; VEGF 1.00E-10 M
[19] = biological target: vascular endothelial growth factor (VEGF), R&D Systems 293-VE-010 (human) (UniProt P15692); assay: c-PLA with preamplification; VEGF 1.00E-09 M
[20] = biological target: vascular endothelial growth factor (VEGF), R&D Systems 293-VE-010 (human) (UniProt P15692); assay: t-PLA, buffer; VEGF 1.00E-10 M
[21] = biological target: vascular endothelial growth factor (VEGF), R&D Systems 293-VE-010 (human) (UniProt P15692); assay: t-PLA, chicken plasma; VEGF 1.00E-09 M
[22] = biological target: vascular endothelial growth factor (VEGF), R&D Systems 293-VE-010 (human) (UniProt P15692); assay: c-PLA, chicken plasma; VEGF 1.00E-08 M
[23] = biological target: vascular endothelial growth factor (VEGF), R&D Systems 293-VE-010 (human) (UniProt P15692); assay: c-PLA, chicken plasma; VEGF 1.00E-13 M
[24] = biological target: vascular endothelial growth factor (VEGF), R&D Systems 293-VE-010 (human) (UniProt P15692); assay: c-PLA, buffer; VEGF 1.00E-10 M
[25] = biological target: vascular endothelial growth factor (VEGF), R&D Systems 293-VE-010 (human) (UniProt P15692); assay: t-PLA, human plasma; VEGF 1.00E-08 M
[26] = biological target: vascular endothelial growth factor (VEGF), R&D Systems 293-VE-010 (human) (UniProt P15692); assay: c-PLA, chicken plasma; VEGF 1.00E-11 M
[27] = biological target: vascular endothelial growth factor (VEGF), R&D Systems 293-VE-010 (human) (UniProt P15692); assay: t-PLA with preamplification; VEGF 1.00E-13 M
[28] = biological target: vascular endothelial growth factor (VEGF), R&D Systems 293-VE-010 (human) (UniProt P15692); assay: t-PLA, chicken plasma; VEGF 1.00E-10 M

Chain of UniProt P01375 (P01375 77-233 limits assumed): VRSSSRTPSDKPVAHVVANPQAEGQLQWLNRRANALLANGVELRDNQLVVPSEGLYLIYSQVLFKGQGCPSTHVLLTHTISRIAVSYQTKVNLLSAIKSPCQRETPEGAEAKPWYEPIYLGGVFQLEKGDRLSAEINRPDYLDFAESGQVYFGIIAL

Substance: affinity-purified polyclonal anti-TNF-α antibody (R&D Systems AF-210-NA)
Counts [1]: 7420
Counts [2]: 33000
SBR [2]: 2070
Counts [3]: 260
Counts [4]: 1.44e+07
SBR [4]: 1.3
Counts [5]: 1.56e+06
SBR [5]: 6.6
Counts [6]: 154000
Counts [7]: 203000
Counts [8]: 28800
SBR [8]: 383
Counts [9]: 45400
SBR [9]: 21
Counts [10]: 1.79e+07
SBR [10]: 75
Counts [11]: 2.12e+08
SBR [11]: 892
Counts [12]: 331
SBR [12]: 4.4

Counts [13]: 1.26e+06
SBR [13]: 7.1
Counts [14]: 363000
Counts [15]: 73600
SBR [15]: 7980
Counts [16]: 6.02e+07
SBR [16]: 1010
Counts [17]: 408
SBR [17]: 1.6
Counts [18]: 1.78e+08
SBR [18]: 1010
Counts [19]: 2.36e+08
SBR [19]: 3970
Counts [20]: 7.59e+08
SBR [20]: 2190
Counts [21]: 2.39e+08
SBR [21]: 3580
Counts [22]: 40800
SBR [22]: 4420
Counts [23]: 29
SBR [23]: 3.1
Counts [24]: 95900
SBR [24]: 3230
Counts [25]: 8.23e+07
SBR [25]: 51
Counts [26]: 2160
SBR [26]: 234
Counts [27]: 577000
SBR [27]: 3.3
Counts [28]: 9.58e+07
SBR [28]: 1430
Substance: affinity-purified polyclonal anti-VEGF antibody (R&D Systems AF-293-NA)

From patent publication US20190360025A1
